This is an account of results in FireProtDB.

For this data set the following is noted: whole UniProt chain shown.
Where [1] appears, read: Erythrina corallodendron, pH 7.4, Thermal, DSC, Sodium phosphate 0.02 M, NaCl 0.15 M, reversible: yes.
[2] abbreviates: Escherichia coli, pH 6, 19 °C, GdnHCl, CD, sodium phosphate 10 mM, sodium sulphate 10 mM, reversible: yes.
Where [3] appears, read: Escherichia coli, pH 6, 25 °C, GdnHCl, CD, sodium phosphate 10 mM, sodium sulphate 10 mM, reversible: yes.
Setting [4] is: Escherichia coli, pH 6, 25 °C, Thermal, DSC, Sodium phosphate 10 mM, Na2SO4 10 mM, reversible: yes.
The mark [5] stands for this setting: Escherichia coli, pH 6, Thermal, DSC, Sodium phosphate 10 mM, Na2SO4 10 mM, reversible: yes.
Setting [6] is: Escherichia coli (strain K12), pH 7, 27 °C, Urea, Fluorescence, Potassium phosphate 50 mM, transition: 3, reversible: yes.
[7] abbreviates: Escherichia coli (strain K12), pH 8.3, Thermal, DSC, borate 40 mM.
Setting [8] is: Escherichia coli (strain K12), pH 7, 25 °C, Thermal, DSC, tetra-borate 1 mM, reversible: yes(70-95%).
[9] abbreviates: Escherichia coli (strain K12), pH 7, Thermal, CD, tetra-borate 1 mM, reversible: yes(70-95%).
Where [10] appears, read: Escherichia coli (strain K12), pH 7, Thermal, DSC, tetra-borate 1 mM, reversible: yes(70-95%).
The mark [11] stands for this setting: Escherichia coli (strain K12), pH 7.8, 25 °C, Urea, CD, Potassium phosphate 10 mM, transition: 3.
Setting [12] is: Escherichia coli (strain K12), pH 7.8, 25 °C, Urea, CD, Potassium phosphate 10 mM.
Setting [13] is: Escherichia coli (strain K12), pH 9.3, 25 °C, Thermal, DSC, tetra-borate 1 mM, reversible: yes(70-95%).
Where [14] appears, read: Escherichia coli (strain K12), pH 9.3, Thermal, CD, tetra-borate 1 mM, reversible: yes(70-95%).
Where [15] appears, read: Escherichia coli (strain K12), pH 9.3, Thermal, DSC, tetra-borate 1 mM, reversible: yes(70-95%).

Several values for one entry are separate records, joined by “and”; a condition that tells them apart may be missing. Identical values can stand only once.

B1: Lectin wild type, P16404 (protein)
chain: MATYKLCSVLALSLTLFLLILNKVNSVETISFSFSEFEPGNDNLTLQGAALITQSGVLQLTKINQNGMPAWDSTGRTLYAKPVHIWDMTTGTVASFETRFSFSIEQPYTRPLPADGLVFFMGPTKSKPAQGYGYLGIFNNSKQDNSYQTLGVEFDTFSNPWDPPQVPHIGIDVNSIRSIKTQPFQLDNGQVANVVIKYDASSKILHAVLVYPSSGAIYTIAEIVDVKQVLPEWVDVGLSGATGAQRDAAETHDVYSWSFQASLPETNDAVIPTSNHNTFAI
With B1, under setting [1], the melting temperature (Tm) came to 61.7 °C, the “unfolding enthalpy (calorimetric)” value was 320 kcal/mol and the “unfolding enthalpy (van 't Hoff)” value was determined as 151 kcal/mol.

B2: PTS system mannose-specific EIIAB component wild type, P69797 (protein)
chain: MTIAIVIGTHGWAAEQLLKTAEMLLGEQENVGWIDFVPGENAETLIEKYNAQLAKLDTTKGVLFLVDTWGGSPFNAASRIVVDKEHYEVIAGVNIPMLVETLMARDDDPSFDELVALAVETGREGVKALKAKPVEKAAPAPAAAAPKAAPTPAKPMGPNDYMVIGLARIDDRLIHGQVATRWTKETNVSRIIVVSDEVAADTVRKTLLTQVAPPGVTAHVVDVAKMIRVYNNPKYAGERVMLLFTNPTDVERLVEGGVKITSVNVGGMAFRQGKTQVNNAVSVDEKDIEAFKKLNARGIELEVRKVSTDPKLKMMDLISKIDK
As for B2, the unfolding free energy (Escherichia coli (strain K12), pH 7.4, 22 °C, GdnHCl, CD, Sodium phosphate 20 mM, reversible: yes) was 6.5 kcal/mol. In addition, under “Escherichia coli (strain K12), pH 7.4, Thermal, CD, Sodium phosphate 20 mM, reversible: yes”, the “unfolding enthalpy (van 't Hoff)” value was found to be 135 kcal/mol.

B3: Tetracycline repressor protein class D wild type, P0ACT4 (protein)
chain: MARLNRESVIDAALELLNETGIDGLTTRKLAQKLGIEQPTLYWHVKNKRALLDALAVEILARHHDYSLPAAGESWQSFLRNNAMSFRRALLRYRDGAKVHLGTRPDEKQYDTVETQLRFMTENGFSLRDGLYAISAVSHFTLGAVLEQQEHTAALTDRPAAPDENLPPLLREALQIMDSDDGEQAFLHGLESLIRGFEVQLTALLQIVGGDKLIIPFC
Turning to B3, the “denaturant midpoint (higher = more stable)” value (shortened to “denaturant midpoint”) (Escherichia coli, pH 7.5, 22 °C, Urea, CD, Tris-HCl 50 mM, NaCl 150 mM, reversible: yes(96%)) was found to be 4.7 M.

B4: Regulatory protein rop wild type, P03051 (protein)
chain: MTKQEKTALNMARFIRSQTLTLLEKLNELDADEQADICESLHDHADELYRSCLARFGDDGENL
Regarding B4, under setting [2], the denaturant m value is 2.75 kcal/mol/M, the “denaturant midpoint” value worked out at 3.3 M and the unfolding free energy came out at 16 kcal/mol. Moreover, under setting [3], the denaturant m value is 3.06 kcal/mol/M, the “denaturant midpoint” value is 3.23 M and the unfolding free energy was found to be 16.9 kcal/mol. Further, under setting [4], the “heat capacity change of unfolding” value turned out to be 2.46 kcal/mol/K and the unfolding free energy turned out to be 17.1 kcal/mol. For the same protein, under setting [5], the Tm amounted to 71 °C, the “heat capacity change of unfolding” value is 2.46 kcal/mol/K, the “unfolding enthalpy (calorimetric)” value came to 139 kcal/mol and the “unfolding enthalpy (van 't Hoff)” value is 130 kcal/mol. Also, the midpoint of thermal melting (Tm) (Escherichia coli, pH 7, Thermal, CD, Sodium phosphate 100 mM, NaCl 200 mM) amounted to 64 °C.

B5: 3-isopropylmalate dehydrogenase wild type, P30125 (protein)
chain: MSKNYHIAVLPGDGIGPEVMTQALKVLDAVRNRFAMRITTSHYDVGGAAIDNHGQPLPPATVEGCEQADAVLFGSVGGPKWEHLPPDQQPERGALLPLRKHFKLFSNLRPAKLYQGLEAFCPLRADIAANGFDILCVRELTGGIYFGQPKGREGSGQYEKAFDTEVYHRFEIERIARIAFESARKRRHKVTSIDKANVLQSSILWREIVNEIATEYPDVELAHMYIDNATMQLIKDPSQFDVLLCSNLFGDILSDECAMITGSMGMLPSASLNEQGFGLYEPAGGSAPDIAGKNIANPIAQILSLALLLRYSLDADDAACAIERAINRALEEGIRTGDLARGAAAVSTDEMGDIIARYVAEGV
With B5, under setting [6], the denaturant m value was 5.56 kcal/mol/M and 2.22 kcal/mol/M; the unfolding free energy is 14.7 kcal/mol and 17.7 kcal/mol. Also, the “unfolding enthalpy (van 't Hoff)” value (Escherichia coli (strain K12), pH 7, Thermal, Fluorescence, potassium phosphate 50 mM, DTT 1 mM, transition: 3, reversible: yes) is 15.4 kcal/mol and 17.8 kcal/mol.

B6: Ornithine carbamoyltransferase subunit I wild type, P04391 (protein)
chain: MSGFYHKHFLKLLDFTPAELNSLLQLAAKLKADKKSGKEEAKLTGKNIALIFEKDSTRTRCSFEVAAYDQGARVTYLGPSGSQIGHKESIKDTARVLGRMYDGIQYRGYGQEIVETLAEYASVPVWNGLTNEFHPTQLLADLLTMQEHLPGKAFNEMTLVYAGDARNNMGNSMLEAAALTGLDLRLVAPQACWPEAALVTECRALAQQNGGNITLTEDVAKGVEGADFIYTDVWVSMGEAKEKWAERIALLREYQVNSKMMQLTGNPEVKFLHCLPAFHDDQTTLGKKMAEEFGLHGGMEVTDEVFESAASIVFDQAENRMHTIKAVMVATLSK
In the case of B6, under setting [7], the midpoint of thermal melting (Tm) amounted to 62.5 °C and the “unfolding enthalpy (calorimetric)” value worked out at 600 kcal/mol.

B7: Regulatory protein cro wild type, P03040 (protein)
chain: MEQRITLKDYAMRFGQTKTAKDLGVYQSAINKAIHAGRKIFLTINADGSVYAEEVKPFPSNKKTTA
For the protein B7, the melting temperature (Tm) runs as follows: (Escherichia phage lambda, pH 3, Thermal, CD, Potassium phosphate 10 mM, KCl 0.1 M, reversible: yes) 40 °C; (Escherichia phage lambda, pH 7, Thermal, CD, Potassium phosphate 10 mM, KCl 0.1 M, reversible: yes) 39.5 °C.

B8: Tryptophan synthase alpha chain wild type, P0A877 (protein)
chain: MERYESLFAQLKERKEGAFVPFVTLGDPGIEQSLKIIDTLIEAGADALELGIPFSDPLADGPTIQNATLRAFAAGVTPAQCFEMLALIRQKHPTIPIGLLMYANLVFNKGIDEFYAQCEKVGVDSVLVADVPVEESAPFRQAALRHNVAPIFICPPNADDDLLRQIASYGRGYTYLLSRAGVTGAENRAALPLNHLVAKLKEYNAAPPLQGFGISAPDQVKAAIDAGAAGAISGSAIVKIIEQHINEPEKMLAALKVFVQPMKAATRS
In the case of B8, the unfolding free energy (Escherichia coli (strain K12), pH 7, 25 °C, GdnHCl, CD, Potassium phosphate 0.01 M, reversible: yes) stood at 9.3 kcal/mol; the unfolding free energy (Escherichia coli (strain K12), pH 7, 25 °C, Thermal, CD, tetra-borate 1 mM, reversible: yes(70-95%)) amounted to 6.7 kcal/mol; the unfolding free energy under setting [8] is 8.4 kcal/mol; the unfolding free energy (Escherichia coli (strain K12), pH 7, 25.8 °C, GdnHCl, CD, Potassium phosphate 0.01 M, reversible: yes) was determined as 8.8 kcal/mol; the unfolding free energy under setting [11] is 7.9 kcal/mol and 5.4 kcal/mol; the unfolding free energy under setting [12] worked out at 5.91 kcal/mol. The unfolding free energy (Escherichia coli (strain K12), pH 9.3, 25 °C, Thermal, CD, tetra-borate 1 mM, reversible: yes(70-95%)) amounted to 3.9 kcal/mol and the unfolding free energy under setting [13] was 5.8 kcal/mol. In addition, the “unfolding enthalpy (calorimetric)” value is, setting by setting: under setting [8], 23.2 kcal/mol; under setting [13], 23.2 kcal/mol. Moreover, the Tm reads like this: under setting [9], 61.2 °C; under setting [10], 62.4 °C; under setting [14], 50.4 °C; under setting [15], 54.3 °C. In addition, the “heat capacity change of unfolding” value is, setting by setting: under setting [9], 2.45 kcal/mol/K; under setting [10], 2.87 kcal/mol/K; under setting [14], 2.45 kcal/mol/K; under setting [15], 2.87 kcal/mol/K. Moreover, the “unfolding enthalpy (van 't Hoff)” value under setting [9] is 19.7 kcal/mol and the “unfolding enthalpy (van 't Hoff)” value under setting [14] was determined as 19.7 kcal/mol. Also, the denaturant m value runs as follows: under setting [11], 2.9 kcal/mol/M and 1.3 kcal/mol/M; under setting [12], 2.23 kcal/mol/M.

By Tm is commonly meant the temperature at which the thermal transition is half complete.
